From article PMC2647316 (Nucleic Acids Research, 2008) come the findings set out here.

By Kd is commonly meant the concentration at which binding is half-saturated. Lower therefore signals tighter binding.

Changes are numbered by the printed parent chain.

Common to all, as to test: SPR
On the technique in general: In SPR one partner is held on a chip, and binding of the other changes the refractive index at the surface.

The target of one data set is T1, GkDnaC R330A (Geobacillus kaustophilus HTA426, UniProt Q5KU75 1-454, R330A).
T1 sequence: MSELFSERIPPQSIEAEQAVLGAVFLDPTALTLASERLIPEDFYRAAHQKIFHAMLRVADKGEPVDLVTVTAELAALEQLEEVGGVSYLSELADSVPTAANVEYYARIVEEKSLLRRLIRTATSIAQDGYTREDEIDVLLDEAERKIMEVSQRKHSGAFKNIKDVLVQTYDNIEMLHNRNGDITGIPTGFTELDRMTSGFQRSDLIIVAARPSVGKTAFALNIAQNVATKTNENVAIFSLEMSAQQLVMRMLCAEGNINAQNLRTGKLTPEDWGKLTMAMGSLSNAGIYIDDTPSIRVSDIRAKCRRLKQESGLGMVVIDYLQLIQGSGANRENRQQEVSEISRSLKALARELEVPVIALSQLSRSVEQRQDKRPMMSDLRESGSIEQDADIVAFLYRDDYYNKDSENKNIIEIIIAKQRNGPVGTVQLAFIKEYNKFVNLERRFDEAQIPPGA

Another data set has as its target T2, GkDnaC R117A (Geobacillus kaustophilus HTA426, UniProt Q5KU75 1-454, R117A).
T2 sequence: T1 sequence with R117A, A330R

The next data set has as its target T3, GkDnaC K50A (Geobacillus kaustophilus HTA426, UniProt Q5KU75 1-454, K50A).
T3 sequence: T1 sequence with K50A, A330R

The next data set concerns the target T4, GkDnaC R332A (Geobacillus kaustophilus HTA426, UniProt Q5KU75 1-454, R332A).
T4 sequence: T1 sequence with A330R, R332A

B1: 5'Bio-(dT)30 (ssDNA)
DNA: TTTTTTTTTTTTTTTTTTTTTTTTTTTTTT
B1: the dissociation constant (Kd) with GkDnaC R330A was found to be 17.8 µM; with GkDnaC R117A it was 1.47 µM; in the data set with GkDnaC K50A it was 1.41 µM; with GkDnaC R332A it was 6.64 µM.
